From the Human Domainome abundance scans (Beltran et al. 2025)
± gives the uncertainty stated by the source.

B1: Transcription elongation regulator 1-like protein, residues 448 to 504; numbered along this chain, Q5VWI1 (parent)
chain: LPLEERVTHFRDMLLERGVSAFSTWEKELHKIVFDPRYLLLNSEERKQIFEQFVKTR
B2: Nanos homolog 2, residues 63 to 115; numbered along this chain, P60321 (parent)
chain: CNFCKHNGESRHVYSSHQLKTPDGVVVCPILRHYVCPVCGATGDQAHTLKYCP

Variants of: B1
Experiment: abundance fitness (aPCA) (normalised: wild type 0, dead -1); higher = more abundant; growth selection in yeast, the domain comes from the species named
Conditions: Homo sapiens
LPLEERVTHFRDMLLERGVSAFSTWEKELHKIVFDPRYLLLNSEERKQIFEYFVKTR [Q52Y] showed an abundance fitness of -0.804 ± 0.22. LPLEERVTHFRDMLLERGVSAFSTWEKELHKIVFDPRYLLLNSEERKQIFEFFVKTR [Q52F] showed an abundance fitness of -0.922 ± 0.25.

Variants of: B2
Experiment: as above
Conditions: Homo sapiens
Variant A41S has an abundance fitness of -0.014 ± 0.069. In the case of A41D, the abundance fitness is reported as -0.287 ± 0.15. Work on A41G yielded an abundance fitness of -0.08 ± 0.074. C28D gave an abundance fitness of -0.643 ± 0.21. For C28Y, the abundance fitness was -0.815 ± 0.28. In the case of S15N, the abundance fitness is reported as -0.034 ± 0.093. With S15Y the abundance fitness was 0.068 ± 0.12. Variant D23P has an abundance fitness of -0.378 ± 0.11. Variant D23V has an abundance fitness of -0.22 ± 0.069. In the case of P22C, the abundance fitness is reported as 0.002 ± 0.15. For P22G, the abundance fitness was -0.041 ± 0.084. In the case of G24R, the abundance fitness is reported as -0.413 ± 0.092. G24Q gave an abundance fitness of -0.152 ± 0.064. G24M showed an abundance fitness of -0.461 ± 0.14. Work on G24E yielded an abundance fitness of -0.115 ± 0.079. Work on G24D yielded an abundance fitness of -0.108 ± 0.065. With C4K the abundance fitness was -0.63 ± 0.19. E9K gave an abundance fitness of -0.007 ± 0.079. G40F gave an abundance fitness of -0.012 ± 0.23. G8W gave an abundance fitness of -0.342 ± 0.12. Work on G8C yielded an abundance fitness of -0.313 ± 0.097. L49M showed an abundance fitness of 0.148 ± 0.13. In the case of L49A, the abundance fitness is reported as 0.081 ± 0.087. With Y51W the abundance fitness was -0.237 ± 0.098. Variant H12C has an abundance fitness of -0.06 ± 0.066. Work on H12T yielded an abundance fitness of 0.035 ± 0.11. Variant H12V has an abundance fitness of -0.091 ± 0.08. H12P showed an abundance fitness of -0.069 ± 0.14. With P37D the abundance fitness was 0.07 ± 0.15. Work on Y14G yielded an abundance fitness of -0.109 ± 0.076. For Y14M, the abundance fitness was -0.274 ± 0.11. Y14I gave an abundance fitness of -0.18 ± 0.15. For V35M, the abundance fitness was -0.51 ± 0.2. F3T gave an abundance fitness of -0.988 ± 0.19. With I30P the abundance fitness was -0.249 ± 0.091. I30Q gave an abundance fitness of -0.05 ± 0.12. I30M gave an abundance fitness of 0.015 ± 0.11. Work on I30K yielded an abundance fitness of 0.127 ± 0.089. In the case of C39L, the abundance fitness is reported as -0.607 ± 0.094. Work on C39A yielded an abundance fitness of -0.986 ± 0.46. Work on L31V yielded an abundance fitness of -0.284 ± 0.066. L31G gave an abundance fitness of -0.443 ± 0.081. For S16D, the abundance fitness was -0.08 ± 0.13. S16Q gave an abundance fitness of -0.042 ± 0.055. S16N gave an abundance fitness of 0.023 ± 0.12. Work on S16K yielded an abundance fitness of -0.262 ± 0.11. Work on N7K yielded an abundance fitness of 0.021 ± 0.085. N7S gave an abundance fitness of -0.054 ± 0.061. Variant V27F has an abundance fitness of -0.049 ± 0.12. In the case of K50L, the abundance fitness is reported as -0.379 ± 0.099. Y34V showed an abundance fitness of -0.033 ± 0.073. Work on K20F yielded an abundance fitness of -0.336 ± 0.14. V25I gave an abundance fitness of 0.03 ± 0.096. V25S showed an abundance fitness of -0.046 ± 0.092. For K5Y, the abundance fitness was -0.145 ± 0.08. T42I gave an abundance fitness of -0.342 ± 0.074. T42P showed an abundance fitness of -0.895 ± 0.24. H17P gave an abundance fitness of -0.828 ± 0.27. Q18A gave an abundance fitness of 0.056 ± 0.1. Work on R32T yielded an abundance fitness of -0.204 ± 0.065. R32C showed an abundance fitness of -0.662 ± 0.14. Variant V13C has an abundance fitness of 0 ± 0.07. Work on V13P yielded an abundance fitness of -0.477 ± 0.13. In the case of V13I, the abundance fitness is reported as -0.195 ± 0.15. R11W showed an abundance fitness of -0.408 ± 0.093. Work on R11K yielded an abundance fitness of -0.317 ± 0.17. In the case of N2F, the abundance fitness is reported as -0.324 ± 0.092. In the case of L19S, the abundance fitness is reported as -0.186 ± 0.15. In the case of L19Q, the abundance fitness is reported as -0.329 ± 0.22. With V38G the abundance fitness was 0.082 ± 0.066.
